Here are results for one molecule from article PMC9396398, “Crystal structure of Ankyrin-G in complex with a fragment of Neurofascin reveals binding mechanisms required for integrity of the axon initial segment” (The Journal of Biological Chemistry, 2022).

One assay has as its target T1, AnkG R6-24 (Rattus norvegicus).
T1 chain: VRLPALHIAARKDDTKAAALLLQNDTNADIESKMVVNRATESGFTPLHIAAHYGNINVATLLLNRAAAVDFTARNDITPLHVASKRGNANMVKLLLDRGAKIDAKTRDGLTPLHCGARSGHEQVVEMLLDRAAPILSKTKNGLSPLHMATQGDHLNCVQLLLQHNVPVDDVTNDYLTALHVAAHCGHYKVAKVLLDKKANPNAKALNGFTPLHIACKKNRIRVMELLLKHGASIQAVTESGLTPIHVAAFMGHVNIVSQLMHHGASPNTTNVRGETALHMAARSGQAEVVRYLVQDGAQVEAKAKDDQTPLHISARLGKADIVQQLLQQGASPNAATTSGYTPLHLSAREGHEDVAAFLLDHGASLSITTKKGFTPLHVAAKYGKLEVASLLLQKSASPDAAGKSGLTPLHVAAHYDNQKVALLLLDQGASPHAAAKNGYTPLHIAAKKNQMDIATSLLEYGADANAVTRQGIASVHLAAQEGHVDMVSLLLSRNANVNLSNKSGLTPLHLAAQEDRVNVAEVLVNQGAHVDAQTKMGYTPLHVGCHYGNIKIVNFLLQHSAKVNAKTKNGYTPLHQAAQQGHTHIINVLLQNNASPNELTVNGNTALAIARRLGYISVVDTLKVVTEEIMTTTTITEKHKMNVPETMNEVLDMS
Briefly: ITC.

In a further assay the target is T2, AnkG R8-24 (Rattus norvegicus).
T2 chain: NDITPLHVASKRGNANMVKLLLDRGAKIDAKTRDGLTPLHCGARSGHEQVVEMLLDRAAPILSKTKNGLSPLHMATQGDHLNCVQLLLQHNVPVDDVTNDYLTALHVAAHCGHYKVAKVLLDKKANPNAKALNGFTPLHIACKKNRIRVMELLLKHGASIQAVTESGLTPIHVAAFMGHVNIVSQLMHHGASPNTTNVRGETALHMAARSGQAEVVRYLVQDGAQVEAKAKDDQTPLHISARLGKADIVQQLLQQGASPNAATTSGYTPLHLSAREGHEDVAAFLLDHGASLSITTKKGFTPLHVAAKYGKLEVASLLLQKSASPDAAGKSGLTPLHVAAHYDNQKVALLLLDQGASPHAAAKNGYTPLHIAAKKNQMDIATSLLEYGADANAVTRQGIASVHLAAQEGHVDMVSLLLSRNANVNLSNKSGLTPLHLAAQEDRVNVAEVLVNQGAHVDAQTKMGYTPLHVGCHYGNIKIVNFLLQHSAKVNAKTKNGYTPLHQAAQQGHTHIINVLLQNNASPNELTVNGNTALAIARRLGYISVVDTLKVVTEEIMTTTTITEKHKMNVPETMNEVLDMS
Briefly: ITC.

B1: Nfasc ankyrin-binding domain (ABD, residues 1187-1214) (domain or fragment, UniProt P97685 1187-1214, looked up)
chain: SDDSLVDYGEGGEGQFNEDGSFIGQYTV
notes: also called Nfasc ABD; source: E. coli BL21 (DE3), purified (Ni-NTA, size-exclusion chromatography)
The Kd is a measure of binding affinity in units of concentration. A high value points to a looser complex. In the case of B1, the dissociation constant (Kd) with AnkG R6-24 stood at 130 nM; with AnkG R8-24, 1100 nM.
